Source: patent publication US20100203031

How the values were obtained:
Experiment in all cases: cell_activity
[1] = system: HprCH3.3 G19S/HprCH3.4 heterodimer chain1: G19S,Y33H,42A,43L; chain2: S32T,Y33H,Q44R,R68Y,R70S,72T,D75N,I77N; conditions: [none]; CHO chromosomal assay, maximum
[2] = system: HprCH3.3/HprCH3.4 G19S heterodimer chain1: Y33H,42A,43L; chain2: G19S,S32T,Y33H,Q44R,R68Y,R70S,72T,D75N,I77N; conditions: [none]; CHO chromosomal assay, maximum
[3] = system: HprCH3.3 G19S/HprCH3.4 G19S heterodimer chain1: G19S,Y33H,42A,43L; chain2: G19S,S32T,Y33H,Q44R,R68Y,R70S,72T,D75N,I77N; conditions: [none]; no LacZ+ foci
[4] = system: HprCH3.3/HprCH3.4 heterodimer chain1: KNSHQS/QRRDI/42A43L (Y33H,42A,43L); chain2: KNTHQS/RYSNN/72T (S32T,Y33H,Q44R,R68Y,R70S,72T,D75N,I77N); conditions: [none]; CHO chromosomal assay, maximum
[5] = system: HBB5 H3/H4a heterodimer H3: 30S,33H,38R,44K,68Y,70S,77T; H4a: 19S,32T,44A,70S,75E,77R,80K,96R; conditions: [none]; yeast beta-galactosidase value
[6] = system: HBB5 H3 V105A/H4a heterodimer H3: 30S,33H,38R,44K,68Y,70S,77T,V105A; H4a: 19S,32T,44A,70S,75E,77R,80K,96R; conditions: [none]; yeast beta-galactosidase value
[7] = system: HBB5 H3/H4b heterodimer H3: 30S,33H,38R,44K,68Y,70S,77T; H4b: 24V,43L,44A,70S,75E,77R,80K,87L,96R; conditions: [none]; yeast beta-galactosidase value
[8] = system: HBB5 H3 I132V/H4b heterodimer H3: 30S,33H,38R,44K,68Y,70S,77T,I132V; H4b: 24V,43L,44A,70S,75E,77R,80K,87L,96R; conditions: [none]; yeast beta-galactosidase value
[9] = system: HBB5 H3 V105A I132V/H4a heterodimer H3: 30S,33H,38R,44K,68Y,70S,77T,V105A,I132V; H4a: 19S,32T,44A,70S,75E,77R,80K,96R; conditions: [none]; yeast beta-galactosidase value
[10] = system: HBB5 H3 I132V/H4a heterodimer H3: 30S,33H,38R,44K,68Y,70S,77T,I132V; H4a: 19S,32T,44A,70S,75E,77R,80K,96R; conditions: [none]; yeast beta-galactosidase value
[11] = system: HBB5 H3 V105A/H4b heterodimer H3: 30S,33H,38R,44K,68Y,70S,77T,V105A; H4b: 24V,43L,44A,70S,75E,77R,80K,87L,96R; conditions: [none]; yeast beta-galactosidase value
[12] = system: HBB5 H3 V105A I132V/H4b heterodimer H3: 30S,33H,38R,44K,68Y,70S,77T,V105A,I132V; H4b: 24V,43L,44A,70S,75E,77R,80K,87L,96R; conditions: [none]; yeast beta-galactosidase value

Sequence	activity (LacZ repair frequency) [1]	activity (LacZ repair frequency) [2]	activity (LacZ repair frequency) [3]	activity (LacZ repair frequency) [4]	activity [5]	activity [6]	activity [7]	activity [8]	activity [9]	activity [10]	activity [11]	activity [12]
TCGAGATGTCATGAAAGAGATGGA (double strand) [HprCH3]	0.0115	0.012	< 6e-06	0.002	–	–	–	–	–	–	–	–
TTGGTCTCCTTAAACCTGTCTTGA (double strand) [HBB5]	–	–	–	–	0.34	0.47	0.29	0.37	0.77	0.49	0.37	0.56
